Experiment: yeast display, Sf9 membrane polyspecificity reagent, FACS + sequencing; frameworks hold sequencing errors
Outline: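 A nanobody's polyreactivity label depends on the gate it was sorted from. Yeast display cells were stained with 10% biotinylated, detergent-solubilized Sf9 membrane reagent for 1 hour at 4 °C, enriched on streptavidin microbeads and sorted by FACS. The low and high (top ~1%) gates were set on anti-HA fluorescence for expression and streptavidin fluorescence for reagent binding.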

Sequence	polyreactivity (PSR sort gate)
QVQLVESGGGLVQAGGSLRLSCAASGSIFFSNAMGWYRQAPGKERELVAAITSTGGSTYYADSVKGRFTISRDNAKNTVYLQMNSLKPEDTAVYYCAAASRRGYYYWGQGTQVTVSS	high polyreactivity
QVQLVESGGGLVQAGGSLRLSCAASGSIFFSNVMGWYRQAPGKERELVAAITGRTGSTYYADSVKGRFTISRDNAKNTVYLQMNSLKPEDTAVYYCFSYWPRYWQSGNDYWGQGTQVTVSS	high polyreactivity
QVQLVESGGGLVQAGGSLRLSCAASGSIFFSYAMGWYRQAPGKEREGGSTDYADSVKGRFTISRDNAKNTVYLQMNSLKPEDTAVYYCAASVRGIRYDYWGQGTQVTVSS	low polyreactivity
QVQLVESGGGLVQAGGSLRLSCAASGSIFFSYAMGWYRQAPGKERELVAAIDYSGGGTYYADSVKGRFTISRDNAKNTVYLQMNSLKPEDTAVYYCNSDTEVWADTFISYRALNYWGQGTQVTVSS	low polyreactivity
QVQLVESGGGLVQAGGSLRLSCAASGSIFFSYAMGWYRQAPGKERELVAAISSGGSTYYADSVKGRFTISRDNAKNTVYLQMNSLKPEDTAVYYCAARGYRLVPVDFYYWGQGTQVTVSS	low polyreactivity
QVQLVESGGGLVQAGGSLRLSCAASGSIFFSYAMGWYRQAPGKERELVAAISTSGGNTYYADSVKGRFTISRDNAKNTVYVQMNSLKPEDTAVYYCNARGSYPPYRSYGYWGQCTQVTVSS	low polyreactivity
QVQLVESGGGLVQAGGSLRLSCAASGSIFFSYVMGWYRQAPGKERELVADITYSGGSTFYADSVKGRFTISRDNAKNTVYLQMNSLKPEDTAVYYCAATWYSWGSEFDYWGQGTQVTVSS	high polyreactivity
QVQLVESGGGLVQAGGSLRLSCAASGSIFFTNTMGWYRKAPGKERELVAAITSGGSTNYADSVKGRFTISRDNAKNTVYLQMNSLKPEDTAVYYCAARYQPWLKYDFDSWGQGTQVTVSS	low polyreactivity
QVQLVESGGGLVQAGGSLRLSCAASGSIFFVYAMGWYRQAPGKERELVAAIDWDGGSTYYADSVKGRFTISRDNAKNTVYLQMNSLKPEDTAVYYCAADAWDLYSDGQEYNYWGQGTQVTVSS	high polyreactivity
QVQLVESGGGLVQAGGSLRLSCAASGSIFFWNAMGWYRQAPGKERELVAAISWSAGITYYADSVKGRFTISRDNAKNTVYVQMNSLKPEDTAVYYCARDQGWYTVYYDSYDYWGQGTLVTVSS	low polyreactivity
QVQLVESGGGLVQAGGSLRLSCAASGSIFFWNTMGWYRQAPGKVRELVAAITVSGGSTYYADSVKGRFTISRDNAKNTVYLQMNSLKPEDSAVYYCAADPYRRYGYDSYNYWGQGTQVTVSS	high polyreactivity
QVQLVESGGGLVQAGGSLRLSCAASGSIFFWYTMGWYRQAPGKERELVATISWSDGTTYYADSVKGRFTISRDKAKNTVYLQMNSLIPEDTAVYYCAAESYPSEVSSYVSEYDYWGQGTQVTVSS	low polyreactivity
QVQLVESGGGLVQAGGSLRLSCAASGSIFFYAMGWYRPAPGKERELVAAISWRGGSTYYADSVKGRFTISRDNAKNTVYLQMNSLKPEDTAVYYCAKATRRYDVYTYGYWGQGTQVTVSS	high polyreactivity
QVQLVESGGGLVQAGGSLRLSCAASGSIFFYAMGWYRQARGKERELVADITYTGGSKYADSVKGRFTISRDNAKNTVYLQMNSLKPEDTAVYYCAKLDGGLFDYWGQGTQVTVSS	low polyreactivity
QVQLVESGGGLVQAGGSLRLSCAASGSIFFYNAMAWYRQAPGKERELVAAINYNGGRTYYADSVKGRFTISRDNAKNTVYLQMNSMKQEDTAVYYCAARYGSGGDYWGQGTQVTVSS	low polyreactivity
QVQLVESGGGLVQAGGSLRLSCAASGSIFFYNAMGWYRQAPGKERELVAAITTRGGSTYYADSVKGRFTISRDNAKNTVYLQMNSLKPEATAVYYCARSSRGKLVYWGQGTQVTVSS	low polyreactivity
QVQLVESGGGLVQAGGSLRLSCAASGSIFFYYAMGWYRQAPGKDRELVAAITSSGDSTYYADSVKGRFTISRDNAKNTVYLQMNSLKPEDTAVYYCAALYIGYTGYYYWGQGTQVTVSS	low polyreactivity
QVQLVESGGGLVQAGGSLRLSCAASGSIFFYYAMGWYRQAPGKEREFVAGITYSGGITYYADSVKGRFTISRDNGKNTVYLQMNSLKPEDTAVYYCDYGGGVYQYGYWGQGPQVTVSS	low polyreactivity
QVQLVESGGGLVQAGGSLRLSCAASGSIFFYYAMGWYRQAPGKERELVADITSGGTTYYADSVKGRFTISRDNAKNTVYLQMNSQKPEDTAVYYCNAGLYPGQRPDYTNYSSYYWGQGTQVTVSS	low polyreactivity
QVQLVESGGGLVQAGGSLRLSCAASGSIFFYYAMGWYRQAPGKERELVASISTDGSTYADSVKGRFTISRDNAKNTVYLQMNSLKPEDTAVYYCNADTRGEYTYVSWYDYWGQGTQVTVSS	low polyreactivity
QVQLVESGGGLVQAGGSLRLSCAASGSIFGAIAMGWYRQAPGKERELVPAITSGGSTNYADSVKGRFTISRDNAKNTFYLQMNSLKPEDTAVYYCAARRRYAKFRYDYWGQGTQVTVSS	high polyreactivity
QVQLVESGGGLVQAGGSLRLSCAASGSIFGANTMGWYRQAPGKERELGAAISKRGGSTYYADSVKGRFTISRDNAKNTVYLQMNSLKPEDTAVYYCNATPRYLRQYVDPNWGYDYWGQGTQVTVSS	low polyreactivity

Sequence	polyreactivity (PSR sort gate)
QVQLVESGGGLVQAGGSLRLSCAASGSIFGANTMGWYRQAPGKERELVAAISSGGNTYYADSVKGRFTISRDNAKNTVYLQMNSLKPEDTAVYYCAVGAYWYFGFVSYGYDYCGQGTQVTVSS	low polyreactivity
QVQLVESGGGLVQAGGSLRLSCAASGSIFGANTMGWYRQAPGKERELVAGITSGARTYYADSVKGRFTISRDNAKNTVYLQMNSLKPEDTAVYYCAAKYAWRRYGYWGQGTQVTVSS	high polyreactivity
QVQLVESGGGLVQAGGSLRLSCAASGSIFGANVMGWYRQAPGKERELVAAISFSGGSTFYADSVKGRFTISRDNAKNTVYLQMNSLKPEDTAVYYCAASYGGKGVKYYYWGQGTQVTVSS	high polyreactivity
QVQLVESGGGLVQAGGSLRLSCAASGSIFGAYAMGWYRQAPGKERELVAAITSGGSTNYADSVKGRFTISRDNAKNTVYLQMNSLKPEDTAVYYCAARRRYAKFRYDYWGQGTQVTVSS	high polyreactivity
QVQLVESGGGLVQAGGSLRLSCAASGSIFGAYAMGWYRQAPGKERELVAAITWRGGSTYYADSVKGRFTISRDNAKNTVYLQMNSLNPEDTAVYYCATDTWGSYYDDDDYWGQGTEVTVSS	high polyreactivity
QVQLVESGGGLVQAGGSLRLSCAASGSIFGAYAMGWYRQAPGPESELVATITLRDGSTYYADSVKGRFTISRDNAKNTVYLQLNSLKPEDTAVYYCATYYSAINYGSSTTILYDYWGQGTQVSVSS	low polyreactivity
QVQLVESGGGLVQAGGSLRLSCAASGSIFGAYAMRWYRQAPGKERELVAAISYGGGNTYYADSVKGRFTISRDNAKNTVYLQMNSLKPEDTAFYYCNALFPRVSGSTYRYNYWGQGTQVTVSS	high polyreactivity
QVQLVESGGGLVQAGGSLRLSCAASGSIFGDYAMGWYRQAPGKERELVADISSGGSTTYADSVTGRFTISRDNAKNTVYLQMNSLKPEDTAVYYCAVDGGDFSSYGNWGQGTQVTVSS	low polyreactivity
QVQLVESGGGLVQAGGSLRLSCAASGSIFGEYAMGWYRQAPGKERELVATIRQSGDSTYYAVSVKGRFTISRDTAKNTVYLQMNSLKPEDTAVYYCAADLWLYDYYSEYDYWGPGTQVTVSS	low polyreactivity
QVQLVESGGGLVQAGGSLRLSCAASGSIFGEYAMGWYRQAPGKERELVATISWSAGSTYYADSVKGRFTISRDYAKNTVYLQMNSLKPEDTAVYYCAAAYDGYYLSTFDSWGQGTQVTVSS	low polyreactivity
QVQLVESGGGLVQAGGSLRLSCAASGSIFGFNAMGWYRQAPGKERELVAGITSGDRTNYADSVKGRFTISRDNAKNTVYLQMNSLKPEDTAVYYCAARKYVFFKMYYWGQGTQVTVSS	low polyreactivity
QVQLVESGGGLVQAGGSLRLSCAASGSIFGFYAMGWDRQAPGKERELVAAIRWRDGRTYYADSVKGRFTISRDNAKNTVYLQMNSLKPEDTAVYYCAAGTPWAYDYWGQGTQVTVSS	high polyreactivity
QVQLVESGGGLVQAGGSLRLSCAASGSIFGFYAMGWYRQAPGKERELVASISSSGDSTYYADSVKGRFTISRDNAKNTVYLQMNSLKPEDTAVYYCAAVVYDIYGYEFDYWGQGTQVTVSS	low polyreactivity
QVQLVESGGGLVQAGGSLRLSCAASGSIFGFYGMGWYRQAPGKERELVAAISSRGGNTYYADSVKGRFTISRDNAKNTVYLQMNSLKPEDTAVYYCNAYRYVRHYSFDYWGQGTQVTVSS	high polyreactivity
QVQLVESGGGLVQAGGSLRLSCAASGSIFGFYVMGWYRQAPGKERELVAAISRGGTRTYYAVSVKGRFTISRDNAKNTVYLKMNSLKPEDTAVYYCAKYEGGSCTGPRSDYWGQGTQVTVSS	high polyreactivity
QVQLVESGGGLVQAGGSLRLSCAASGSIFGGNAMGWYRQAPGKERELVAAITSRGGSTYYADSVKGRFTISRDNAKNTVYLQMNSLKPEDTAVYYCNALSSGVYLYDYWGQGTQVTVSS	high polyreactivity
QVQLVESGGGLVQAGGSLRLSCAASGSIFGGYAMGWYRQAPGKERELVAAISGSGGSTYYADSVKGRFTISRDNAKNTVYLQMNSLKPEDTAVYYCAADSNKYGYEYDYWGQGTQVTVSS	low polyreactivity
QVQLVESGGGLVQAGGSLRLSCAASGSIFGGYAMGWYRQAPGKERELVAAISRSGASTYYADSVKGRFTISRDNAKNTVYLQMNSLKPVDTAVYYCAAYALRGVRYPYRVDFYYWGQGTQVTVSS	high polyreactivity
QVQLVESGGGLVQAGGSLRLSCAASGSIFGGYAMGWYRQAPGKERELVAAISWSSSSTYYADSVKGRFTISRDNAKNTVFLQMISLKPEDTAVYYCATGIYPQTSDYVYWGQGTQVTVSS	low polyreactivity
QVQLVESGGGLVQAGGSLRLSCAASGSIFGGYDMGWYRQAPGTERELVAAITRDGDTNYADSVKGRFTISRDNAKNTVYLQMNSLKPEDTAVYYCAADRWLYSWFFNYDQGDYWGQGTQVTVSS	low polyreactivity
QVQLVESGGGLVQAGGSLRLSCAASGSIFGGYGMGWYRQAPGTERELVAAITSGSSTYYADSVKGRFTISRDNAKNTVYLQMNSLKPEDTAVYYCAARPYPHSAYEGDYWGRGTQVTVSS	low polyreactivity
